Experimental data from article doi:10.1101/2022.04.14.487897 (bioRxiv, 2022).

Columns and labels:
mortalin (HSPA9) [1] = target: mortalin (HSPA9) (UniProt P38646); experiment: MST
mortalin (HSPA9) [2] = target: mortalin (HSPA9) (UniProt P38646 47-679, Alexa 647 dye (NanoTemper) / NT-647 label); experiment: MST
[3] = target: ferrous cytochrome c (Fe2+), horse heart (horse, UniProt P00004 1-105, heme iron ferrous (Fe^2+)); experiment: enzyme inhibition
[4] = target: H26Y cytochrome c (globular structure, high peroxidase activity) (UniProt P00004); experiment: enzyme inhibition

Sequence of ferrous cytochrome c (Fe2+), horse heart (P00004 whole entry): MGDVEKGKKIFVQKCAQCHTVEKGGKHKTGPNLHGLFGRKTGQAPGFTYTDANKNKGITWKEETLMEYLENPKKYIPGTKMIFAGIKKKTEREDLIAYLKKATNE
Sequence of mortalin (HSPA9) (UniProt P38646) (P38646 47-679): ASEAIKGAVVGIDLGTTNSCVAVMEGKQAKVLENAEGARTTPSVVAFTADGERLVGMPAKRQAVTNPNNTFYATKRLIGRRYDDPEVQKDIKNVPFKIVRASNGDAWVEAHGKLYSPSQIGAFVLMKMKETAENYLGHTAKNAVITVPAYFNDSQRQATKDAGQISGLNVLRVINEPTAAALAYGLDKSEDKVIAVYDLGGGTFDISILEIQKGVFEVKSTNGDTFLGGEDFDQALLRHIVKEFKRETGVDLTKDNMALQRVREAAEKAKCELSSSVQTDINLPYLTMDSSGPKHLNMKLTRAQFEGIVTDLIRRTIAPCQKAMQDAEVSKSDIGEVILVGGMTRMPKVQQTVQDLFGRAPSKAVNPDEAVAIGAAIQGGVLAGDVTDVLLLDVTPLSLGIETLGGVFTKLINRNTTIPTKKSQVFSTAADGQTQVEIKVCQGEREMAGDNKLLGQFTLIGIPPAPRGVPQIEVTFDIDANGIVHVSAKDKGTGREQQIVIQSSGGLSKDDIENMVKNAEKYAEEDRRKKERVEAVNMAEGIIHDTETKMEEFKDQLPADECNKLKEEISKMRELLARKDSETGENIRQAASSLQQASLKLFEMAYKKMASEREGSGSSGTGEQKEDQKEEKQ
Sequence of mortalin (HSPA9) (UniProt P38646 47-679, Alexa 647 dye (NanoTemper) / NT-647 label) (P38646 47-679): as above

Ki [3] [µM]	Ki [4] [µM]	Molecule	Kd (mortalin (HSPA9) [1]) [µM]	Kd (mortalin (HSPA9) [2]) [µM]
		Bcl-2 (from UniProt P10415 1-239) (natural protein)	0.171	
1.43	3.54	full-length human p66Shc (wildtype) (natural protein, UniProt P29353-1 1-583, looked up, Alexa 647 label (only in the MST with cytochrome c, where p66Shc was the labelled protein)) MDLLPPKPKYNPLRNESLSSLEEGASGSTPPEELPSPSASSLGPILPPLPGDDSPTTLCSFFPRMSNLRLANPAGGRPGSKGEPGRAADDGEGIVGAAMPDSGPLPLLQDMNKLSGGGGRRTRVEGGQLGGEEWTRHGSFVNKPTRGWLHPNDKVMGPGVSYLVRYMGCVEVLQSMRALDFNTRTQVTREAISLVCEAVPGAKGATRRRKPCSRPLSSILGRSNLKFAGMPITLTVSTSSLNLMAADCKQIIANHHMQSISFASGGDPDTAEYVAYVAKDPVNQRACHILECPEGLAQDVISTIGQAFELRFKQYLRNPPKLVTPHDRMAGFDGSAWDEEEEEPPDHQYYNDFPGKEPPLGGVVDMRLREGAAPGAARPTAPNAQTPSHLGATLPVGQPVGGDPEVRKQMPPPPPCPGRELFDDPSYVNVQNLDKARQAVGGAGPPNPAINGSAPRDLFDMKPFEDALRVPPPPQSVSMAEQLRGEPWFHGKLSRREAEALLQLNGDFLVRESTTTPGQYVLTGLQSGQPKHLLLVDPEGVVRTKDHRFESVSHLISYHMDNHLPIISAGSELCLQQPVERKL		0.858
